Data: publication PMC2954370 (Antiviral research, 2010)

B1: HIV-1 envelope glycoprotein gp120 of isolate Bal (natural protein)
chain: not shown
B2: m36 mutant m36.4 (VHH)
VHH: QVQLVQSGGGLVQPGGSLRLSCAASAFDFSDYEMSWVREAPGKGLEWIGEINDSGNTIYNPSLKSRVTISRDNSKNTLYLQMNTLRAEDTAIYYCAIYGGNSGGEYWGQGTLVTVSS
B3: m36 mutant m36.5 (VHH)
VHH: QVQLVQSGGGLVQPGGSLRLSCAASAFDFSDYEMSWVREAPGKGLEWIGEINDSGNTIYNPSLKSRVTISRDNSKNTLYLQMNTLSAEDTAIYYCAIYGGNSGGEYWGQGTLVTVSS
B4: m36 mutant m36.1 (VHH)
VHH: QVQLVQSGGGLVQPGGSLRLSCAASTFDFSDYEMSWVREAPGKGLEWIGEINDSGNTIYNPSLKNRVTISRDNSKNTLYLQMNTLRAEDTAIYYCAIYGGNSGGEYWGQGTLVTVSS

What was measured:
[1] = molecular target: fusion protein of m36 with human IgG1 Fc (human); assay: ELISA
[2] = molecular target: B1; assay: cell-based or functional assay
[3] = molecular target: T1, HIV-1 Env gp140 of isolate JRFL (HIV-1 isolate JRFL (clade B), UniProt Q75760); assay: cell-based or functional assay
[4] = molecular target: B1; assay: ELISA
[5] = molecular target: T1, HIV-1 Env gp140 of isolate JRFL; assay: ELISA

Binder | binding result [1] | IC50 of neutralisation of HIV-1 Bal Env-pseudotyped virus, HOS-CD4-CCR5 cells [2] [nM] | IC50 of neutralisation of HIV-1 JRFL Env-pseudotyped virus, HOS-CD4-CCR5 cells [3] [nM] | binding result [4] | binding result [5]
B1 | binds | – | – | – | –
B2 | – | 11 | 27 | – | –
B3 | – | – | – | binds | binds
B4 | – | – | – | binds | binds
